Assay results as given in the supplement of paper PMC12042874.
± gives the uncertainty stated by the source.

Assay: amyloid nucleation score (Sup35N fusion, yeast selection) (log enrichment); library NNK3; higher = more nucleation; inactive = no reads after selection
Method in brief: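 The nucleation score is a DiMSum log enrichment of output over input reads, centred on the mode score of non-aggregating sequences. Sequences under 100 input reads were excluded, and reads came from Illumina sequencing of plasmid inserts. Psi-negative yeast expressing Sup35N fused to peptides of 20 random codons were induced with 100 μM copper sulfate for 24 hours and grown 7 days at 30°C on medium lacking adenine and uracil. Random libraries had three technical output replicates.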

Row | Substance | amyloid nucleation score
1 | INVVIRSSHFECTGC | 1.15 ± 0.11
2 | IPNDYAVAYAEGQLLVCELK | inactive
3 | IPSIWMGISRK | inactive
4 | IPSTMRDDFAYTNCPNNSFL | inactive
5 | IPSWELISGHWS | inactive
6 | IPVSHVAMNGECGWVSDIKH | inactive
7 | IPYRLVGMLTVVTCRTSKLC | inactive
8 | IQAAEVWMTAPFGFDMEGGR | inactive
9 | IQASWFNWKWLL | inactive
10 | IQDHFELFTNVGSYFQIQPL | inactive
11 | IQHSFCGRNSDLPLNVWLMW | inactive
12 | IQISYNWW | 0.75 ± 0.3
13 | IQMSNLNNTSLQVRRPRPCV | inactive
14 | IQSKRRPSDCLPKS | inactive
15 | IQSSYSMYIEWL | inactive
16 | IQTQTGTLVSRPLQPTAVVR | -0.007 ± 0.82
17 | IRDYVFRLYYRLNCMIRKRG | inactive
18 | IRFSGIVAVMISQGGSRREC | 2.5 ± 0.08
19 | IRFVLYISGILSCWFNRWNN | inactive
20 | IRGSSKTDSKRTWVK | -0.364 ± 0.7
21 | IRKSFVEKMLPLPFSLAAIG | 0.234 ± 0.44
22 | IRLCLLSIMWLNGWLSAIHA | inactive
23 | IRLDSYLDNMSMLLCKYWFC | inactive

Row | Substance | amyloid nucleation score
24 | IRLHLLLGFVV | inactive
25 | IRLPIGQGLC | inactive
26 | IRLWQEHWNWRGRSLFFRWC | inactive
27 | IRMHGWPYRLVREICFNGFF | 0.028 ± 0.5
28 | IRMQNLRFGSLKLAGFIMCD | inactive
29 | IRQGNVYK | inactive
30 | IRRLDEVNEWANSYKLWKKQ | inactive
31 | IRSNGTFTPWEPLSVIWCTK | inactive
32 | IRSYERVSRLTGVVGSTSVD | inactive
33 | IRVIISGVLGTELKNALAKY | inactive
34 | IRVMNEMYLFLNRVYFAFSY | inactive
35 | IRYLYLFVYSSRLSHIPGKN | inactive
36 | IRYSGFPYPSNLWHTSATLY | inactive
37 | ISCMVFANHR | inactive
38 | ISCPLYQGMGHLIH | inactive
39 | ISDDICSFVAHSAILFGRQM | inactive
40 | ISESN | inactive
41 | ISHFLE | inactive
42 | ISIGYEQFLDSCNLLSIYLT | inactive
43 | ISKSDLSLFN | inactive
44 | ISLKSLFVFHNLSVDIWVQR | inactive
45 | ISMLMFDLA | inactive
46 | ISNGVNPGVFDAVSWLDWAV | inactive

Row | Substance | amyloid nucleation score
47 | ISPSYVQSDQFIGRTHVS | inactive
48 | ISQFLGKFTFCNSALHFFGA | inactive
49 | ISQHMANFYNSVVVVCILED | 3.19 ± 0.075
50 | ISQLIEHRRAESCLRPKGRQ | inactive
51 | ISTDDKIIGST | inactive
52 | ISTLGYFAELVI | inactive
53 | ISWYVWRVMYMSCGWSIVFR | inactive
54 | ITARLVTS | inactive
55 | ITIGTTIGDLSYR | inactive
56 | ITKKRYNCRMFLIT | inactive
57 | ITLLCTLYYGQPTLGVDLVL | inactive
58 | ITMLMLATVKYSFYADLRFL | inactive
59 | ITRTSDLFMLGSLINRGIAA | inactive
60 | ITTCLMYHRLCECGSKVLGL | inactive
61 | IVCNIN | -0.036 ± 0.55
62 | IVFLLLVRLLVFIP | inactive
63 | IVGAAVRGKMRFSMSRAWLG | inactive
64 | IVHVSLWKMSISPIWEWSMI | 0.006 ± 0.37
65 | IVKVLNGFKTRVSSVCVTNG | inactive
66 | IVLNIMHNVSHFLGLYVEG | inactive
67 | IVQTLYNLAAVHSTWAIRFQ | -0.142 ± 0.4
68 | IVQYELTACDESAVKWIGMP | inactive
69 | IVRMNQCSMGCLRVAMSSS | inactive

Row | Substance | amyloid nucleation score
70 | IVRRGLKMCG | inactive
71 | IVSLALSFFLDHSQVFCLNS | 1.36 ± 0.15
72 | IVSMDQESTLQWNVPGYVLL | inactive
73 | IVSNTTPTQPTSVLVNYSVR | inactive
74 | IVVANMWLLKKNYLRMELFA | inactive
75 | IVYGPCYTLYVRCSVFSLSK | 2.31 ± 0.063
76 | IWISLGAMIMFMVN | inactive
77 | IWNKFGIIFYVVYYSIRTNL | inactive
78 | IWVGRTDFWFWHVTGEDCLG | inactive
79 | IWWNHCEHHMLRSSLRVRAY | inactive
80 | IWWVSK | inactive
81 | IYAGS | -0.633 ± 0.96
82 | IYCPNIILLVKRHGVFQMFL | 2.3 ± 0.072
83 | IYDCNRDIGDVLTSSDPPHA | inactive
84 | IYDSRWTTNDSSCTTVFTEQ | inactive
85 | IYILYVMDF | inactive
86 | IYIRVRMDEFLMSVTTIARG | inactive
87 | IYKKNMAGRVDQKIVTQDPP | inactive
88 | IYLLGMYIKACSG | inactive
89 | IYNPRSNINQFPDTFEPDQM | inactive
90 | IYSIKSV | -0.357 ± 0.68
91 | IYSNSLACDRSGFFKASSSQ | -0.998 ± 1.2
92 | IYSNSPDRPEFHCNSRCGDG | inactive

Row | Substance | amyloid nucleation score
93 | IYSRELHVCAVSIADFIWFW | inactive
94 | IYSVTMTRHVFFNGFQVQLV | inactive
95 | IYSYTVFPSFGGMLCMVLVG | inactive
96 | IYVHNYFISVVIMVYFTMLP | inactive
97 | IYVLNLMLFVFCRNVLCDGY | inactive
98 | IYVVRIYVSWVNILHALVYS | inactive
99 | KACWLYLIFIFFGWVYSKTI | 0.745 ± 0.25
100 | KALTRRIILHWK | 0.711 ± 0.28
101 | KANRFRVVMLGVDGVCAFQS | inactive
102 | KASVSTRFMII | inactive
103 | KASWRMLC | inactive
104 | KCKANPEDNVRFLRLVYGAS | inactive
105 | KCLLV | inactive
106 | KCTGYAGCCWWT | inactive
107 | KDKACRNCHKGVMRVTWVK | 0.012 ± 0.87
108 | KDLYIIIITRMYRIFKS | inactive
109 | KDRSCNALWGLDCLYGNKGC | -0.197 ± 0.61
110 | KDVSMLSTVTRTPRMRRVST | inactive
111 | KEADDCVREAKFGAEFVTLR | inactive
112 | KEGNGMSFYN | inactive
113 | KEQDTQSIAQCNKTHRA | inactive
114 | KFFQIIRASVF | inactive
115 | KFFQTSLRTAIRLWKSAISC | inactive

Row | Substance | amyloid nucleation score
116 | KFGHSVKSINLLNATTHVWI | -0.126 ± 0.47
117 | KFHWWDTCTDVKSRLKVDVE | inactive
118 | KFILFRVSVKGIRRFQVGR | 1.47 ± 0.14
119 | KFKENMYLTYSCLHKVIMRF | inactive
120 | KFSNSASFSGFYFNNYLSSQ | 0.95 ± 0.096
121 | KGASIYMVTLFSSSNAKM | 1.28 ± 0.093
122 | KGEFIRPTSMVKYTDGLESG | inactive
123 | KGMFLVMSRLCPFISWSRSQ | inactive
124 | KGRMQVEWDFGISAYCGMML | -0.431 ± 1.1
125 | KGSLGVPWLLVNSGLINGC | inactive
126 | KGSTLVMLP | inactive
127 | KGSVRYIDCIVIL | 1.77 ± 0.063
128 | KGVFRNAFELFKYHFSHAGM | inactive
129 | KHLGKAKSSGST | inactive
130 | KHRYAYGRRTNCWASHYLRG | inactive
131 | KHSVSLECRIRSAGDTVGWF | inactive
132 | KIDLVGTLVMTIFNAQMQYE | 2.06 ± 0.083
133 | KIICRAWYMSVGERRA | -0.449 ± 1.4
134 | KIKSLELMYDISERNF | inactive
135 | KISETGRCNSLCW | inactive
136 | KKCHGMMCNTITRTINILC | inactive
137 | KKMHNVALGFMFIVVG | inactive
138 | KLASLFNYCSERKN | inactive

Row | Substance | amyloid nucleation score
139 | KLGMSPSSLYSPAR | inactive
140 | KLQYYVALSAT | inactive
141 | KLRTSGAILVF | inactive
142 | KLTFNRLLKT | inactive
143 | KLVAGFPAGCTK | inactive
144 | KLVFTIRVF | inactive
145 | KLYIALMDKYPGATSMFQPV | 1.18 ± 0.23
146 | KMDLTGWTI | inactive
147 | KMFWLVTHRLN | inactive
148 | KMKCRVIYVLSSLIYCM | inactive
149 | KMKIT | inactive
150 | KMLNYM | inactive
151 | KMRSSVYFLDYNWNKTLPCL | -0.541 ± 1.1
152 | KNGKWRGISSYRNRRFNTGI | inactive
153 | KNLDKLVKMYH | inactive
154 | KNLRVLGSSLIGLTLIECHG | -0.801 ± 1.1
155 | KNQNMMMSSQFSMYCWFRLT | inactive
156 | KNVSEEVGLSLVPSEGKSHL | inactive
157 | KPGIIIVFVGHG | inactive
158 | KPISRRGWPRPKAGRNEPPR | inactive
159 | KPLCLFQARRYRW | inactive
